The numbers were not newly measured in publication PMC1950483, which cites them from elsewhere.

Common to all, as to assay: NMR
Common to all, as to settings: folded FNfn10 in solution

Data set [1] deals with Asp7 (UniProt position 1544, SDVPRDLEVVA).
Data set [2] has as its target Glu9 (UniProt position 1546, VPRDLEVVAAT).
Data set [3] has as its target Asp23 (UniProt position 1560, LLISWDAPAVT).

For the substance “Fibronectin, tenth type III domain (FNfn10) (Homo sapiens)”, the pKa was 5.54 in data set [1], 5.25 in data set [2] and 5.40 in data set [3].

Usually pKa stands for the pH at which an ionisable group is half protonated.
